Experimental data: US20150141617A1, “PRODUCTION AND PURIFICATION OF ACTIVE EUKARYOTIC FORMYLGLYCINEGENERATING ENZYME (FGE) VARIANTS” (Universität Bielefeld, priority 2013, published 2015)

Assays:
[1] = molecular target: T1, recombinant furin (rFurin) (Homo sapiens, UniProt P09958); experiment: In vitro furin cleavage assay; type: biochemical
T1 construct: purchased NEB
Procedure: CHO-FD11 cells stably expressing FGE-His6 or HT1080 cells were grown for 24 h, and cells and medium were harvested. For treatment with furin in vitro cell pellets were resuspended in HEPES pH 7.5 buffer containing 1 mM CaCl2 and 0.5% Triton X-100 and lysed in the absence of protease inhibitors by sonication on ice. Appropriate amounts of cell lysate and medium were incubated for 3 h at 25° C. with 4 units of furin (NEB) with or without 25 μM decanoyl-RVKR-CMK (Alexis biochemicals) as indicated in the figures. For in vivo treatment, HT1080 Tet-On cells were transiently transfected with pBI-FGE-HA and 4 h post-transfection, the medium was replenished with medium containing 20 ng/mL doxycycline and various concentrations of decanoyl-RVKR-CMK or only DMSO as a carrier control. The cells and medium were collected after 16 h of induction/treatment for further analysis. The samples were boiled in Laemmli buffer and analyzed by SDS-PAGE and western blotting with FGE antiserum.
In mammals, the proproteinconvertase family comprises nine enzymes that differ in their substrate specificity and tissue-specific expression and/or subcellular localization (17). Furin is the best characterized mammalian PC with a ubiquitous tissue distribution and it is the major convertase in the secretory pathway. To analyze the role of furin in the processing of FGE the inventors expressed FGE in cells that are deficient for furin. […] When cell homogenate and medium from CHO-FD11 cells stably expressing FGE-His were treated with commercially available recombinant furin (rFurin), almost half the amount of FGE was processed, as observed for both cells and medium (FIG. 12D). Using this in vitro furin cleavage assay, the inventors also examined whether endogenous intracellular FGE is susceptible to furin processing. Indeed, rFurin readily converted almost 90% of endogenous fl-FGE from untransfected HT1080 cells to the truncated form (FIG. 12E).
Although FGE is an ER resident protein, it lacks a canonical ER-retention motif. […] In this study, using the in vitro furin cleavage assay, the inventors assessed furin-mediated processing of the FGE-ERp44 covalent complex (FIG. 8). Homogenates, pre-treated with NEM (to prevent post-lysis disulfide shuffling), from HT1080 cells expressing either FGE alone or FGE plus myc-ERp44 together from a bi-directional promoter were incubated with rFurin and analyzed by SDS-PAGE under non-reducing conditions. Upon overexpression, intracellular FGE via its N-terminal cysteines (C50 and C52) forms covalently cross-bridged homodimers (FIG. 15, lane 1 and 2) and, additionally, FGE-ERp44 heterodimers when co-expressed with ERp44 (FIG. 15, lane 4 and 6) as previously observed (13). Removal of the N-terminus by furin cleavage should lead to a disappearance of the homo-/hetero-dimeric FGE forms, which serves as an indicator for accessibility of the furin cleavage motif in FGE.

[2] = system: cysteine-containing substrate peptide; experiment: In vitro FGE activity assay with conditioned media from CHO-FD11 cells; type: biochemical; conditions: 5 mM GSH vs 2 mM DTT, pH 9.3, conditioned media
Procedure: FGE activity was assayed using conditioned media that contained either secreted fl-FGE (obtained from CHO-FD FGE-His6 cells) or Δ72-FGE (obtained from CHO-FD Tet-On cells after transient co-transfection with pBI-FGE-HA and pIRES-Furin constructs). After expression for 48 h at 1% or 2.5% FCS containing DMEM, the medium was collected and centrifuged at 500×g for 5 min. The supernatant was analyzed by SDS-PAGE and western blotting and aliquots were directly used for activity testing.
The activity assay was performed in triplicates with three sets of conditioned media at pH 9.3 under standard conditions as described earlier (4) with some modifications; no BSA was added to the reaction mixture and 2 mM DTT or 5 mM GSH were used as reducing agents.
The inventors have recently shown that the N-terminal part of FGE (residues 34-68) is essential to activate sulfatases in vivo (12). By contrast, the N-terminal extension was not required for in vitro FGly-generating activity of purified secreted Δ72-FGE. […] To assess the physiological consequence of the N-terminal truncation by furin on the function of FGE, the inventors analyzed the FGly-generating activity of the processed and the unprocessed forms of secreted FGE in the presence of glutathione (GSH), a physiological reductant, or DTT serving as a control. […]

T1 sequence (P09958 108-794): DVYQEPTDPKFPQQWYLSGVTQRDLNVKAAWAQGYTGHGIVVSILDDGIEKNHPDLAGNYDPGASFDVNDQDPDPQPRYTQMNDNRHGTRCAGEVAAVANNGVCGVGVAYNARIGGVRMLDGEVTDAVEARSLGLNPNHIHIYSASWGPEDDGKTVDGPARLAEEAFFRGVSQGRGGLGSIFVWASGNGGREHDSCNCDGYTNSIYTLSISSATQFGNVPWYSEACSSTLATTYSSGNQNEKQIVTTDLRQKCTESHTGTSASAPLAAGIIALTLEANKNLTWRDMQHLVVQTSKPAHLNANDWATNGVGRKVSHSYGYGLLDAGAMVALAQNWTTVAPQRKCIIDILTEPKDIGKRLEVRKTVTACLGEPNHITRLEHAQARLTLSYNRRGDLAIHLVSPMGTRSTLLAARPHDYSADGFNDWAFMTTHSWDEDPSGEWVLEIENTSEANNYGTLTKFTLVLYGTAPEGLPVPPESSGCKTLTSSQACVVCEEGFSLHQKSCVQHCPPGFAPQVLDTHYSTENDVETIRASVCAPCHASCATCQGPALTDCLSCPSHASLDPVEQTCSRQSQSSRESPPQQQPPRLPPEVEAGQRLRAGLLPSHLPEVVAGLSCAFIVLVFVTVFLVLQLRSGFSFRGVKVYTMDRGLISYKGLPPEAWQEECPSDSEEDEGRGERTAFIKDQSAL

accessibility of the furin-cleavage site in FGE monomer and homodimer ([1]; NEM-treated HT1080 Tet-On lysates): accessible to furin | furin cleavage of FGE in complex with ERp44 ([1]; NEM-treated HT1080 Tet-On lysates co-expressing myc-ERp44): protected from furin cleavage | amount of FGE processed by rFurin ([1]; cell homogenate and medium from CHO-FD11 cells, 3 h 25° C.): almost half | endogenous fl-FGE converted to the truncated form by rFurin ([1]; lysate of untransfected HT1080 cells): ~90%
B1: FGE: human wild type full length formylglycine generating enzyme with RYSR furin cleavage motif, SEQ ID NO:2 (protein)
chain: ADEFSQEAGTGAGAGSLAGSCGCGTPQRPGAHGSSAAAHRYSREANAPGPVPGERQLAHSKMVPIPAGVFTMGTDDPQIKQDGEAPARRVTIDAFYMDAYEVSNTEFEKFVNSTGYLTEAEKFGDSFVFEGMLSEQVKTNIQQAVAAAPWWLPVKGANWRHPEGPDSTILHRPDHPVLHVSWNDAVAYCTWAGKRLPTEAEWEYSCRGGLHNRLFPWGNKLQPKGQHYANIWQGEFPVTNTGEDGFQGTAPVDAFPPNGYGLYNIVGNAWEWTSDWWTVHHSVEETLNPKGPPSGKDRVKKGGSYMCHRSYCYRYRCAARSQNTPDSSASNLGFRCAADRLPTMDSGRGSHHHHHHH
modifications: cloned matured acitve full length FGE with 6x His tag on C-terminus
FGly-generating activity (% substrate turnover) in the presence of GSH normalized to that of DTT (100%) [2]: as active with GSH as with DTT
